Data published in patent publication US20240218057A1 (ROCKEFELLER UNIVERSITY, published 2024).
Residue numbers refer to the chain shown, from its start.

B1: C884 (antibody, V domains shown)
VH: QVQLQQWGAGLLKPSETLSLTCVVYGGSFSAYYWSWIRQPPGKGLEWIGEINHSGSTNYKSSLQSRVTISVDTSKNQFSLKLSSVTAADTAVYYCARETGTYGTFDHWGQGTLVTVSS
VL: EIVLTQSPGTLSLSPGERATLSCRASQSVSSTYLAWYQQKPGQAPRLLIYGASSRATGIPDRFSGSGSGTDFTLTISRLEPEDFAVYYCQQYAFSVWTFGQGTKVEI
notes: IgG; V domains only
B2: C867 (antibody, V domains shown)
VH: QVQLQESGPGLVKSSETLSLTCTVSSGSVRSGGYYWSWIRHHPGKGLEWIGYIFYTGITYYNPSLKSRVIVSVDPSKNQFSLNLTSVTAADTAVYYCASTPYTNGGAFHIWGQGTMVTVSS
VL: QSALTQPPSASGSPGQSVTISCTGTSSDVGGHNYVSWYQQFPGKAPKLIIYDVNKRPSGVPDRFSGSKSANTASLTVSGLQAEDEADYHCSSYAGSNNWVFGGGTKLTVL
notes: IgG; V domains only
B3: C869 (antibody, V domains shown)
VH: QVQLVESGGGVVQPGTSLRLSCAASGFTFSSFGMNWVRQAPGKGLEWVAVIFFDGSKTYYADSVKGRFTISRDNSKNTLYLQMNSLRTEDTAVYYCAKGQLRLGEFDDYWGQGTLVTVSS
VL: DIQMTQSPSSLSASVGDRVTITCRASQDIRDDLNWYQHKPGKAPKLLIYTASSLQSGVPSRFSGSGSGTDFTLTISRLQPEDFASYYCLQDHNYPLTFGQGTKLEIK
notes: IgG; V domains only
B4: C872 (antibody, V domains shown)
VH: EVQLVESGGGLIQPGGSLRLSCAASGFIVSNNYISWVRQAPGKGLEWVSVIYSGGTTYYADSVKGRFSISRDTSKNTVYLQINNLRAEDTAVYYCAREGDVDGNYGFWSGYSRDRYYFDYWGQGTLVTVSS
VL: QSALTQPASVSGSPGQSITISCTGTSSDVGAYNYVAWYQQHPGKAPKLMVYDVSKRPSGVSNRFSGSKSGNTASLTISGLQTEDEGDYYCCSYTTNTTRVFGTGTMLTVL
notes: IgG; V domains only
B5: C882 (antibody, V domains shown)
VH: QVQLVESGGGVVQPGRSLRLSCAASGFTFIRYNMHWVRQAPGKGLEWVAVIWYDGSNKYYADSVKGRFTISRDNSKNTLYLQMNSLRAEDTAVYYCARDPMIVVVEMDYWGQGTLVTVSS
VL: DVVMTQSPLSLPVTLGQPASISCNSSQSLVHTDGNTYLNWFQQRPGQSPRRLIYKVSNRDSGVPDRFSGSGSDTDFTLQISRVEADDVGVYYCMQGSHWPYTFGQGTKLEIK
notes: IgG; V domains only
B6: C875 (antibody, V domains shown)
VH: QVQLVQSGAEVKQPGASVKISCKASGYIFTTYFMHWVRQAPGQGLEWLGIIDPTISGASLAQKFQGRVTMTSDTSTSTVYMEMRSLRSDDTALYFCARASTSTSSWSEALSLGSWGQGTLVTVSS
VL: QSVLTQPPSVSGAPGQGVSISCTGSSSNVGAGYGVHWYQQLPGTTPKLLIYDNNSRPAGVPDRFSGSKSGTSASLAIAGLQPEDEADYYCQSWDNGLSGSGVVFGGGTKVTVL
notes: IgG; V domains only
B7: C880 (antibody, V domains shown)
VH: QVQLQQWGAGLLKPSETLSLTCAVYGGSFSDYYWSWIRQPPGKGLEWIGENNHSGKTNYNPSLENRVTISVDTSKNQFSLKLTSVTAADTAVYYCARESGSYGTFDYWGQGTLVTVSS
VL: EIVLTQSPGTLSLSPGERATLSCRASQSVSSAYLAWYQQKPGQAPRLLIYGASSRATGIPDRFSGSGSGTDFTLTISRLEPEDFAVYFCQQYAYTIWTFGQGTKVEIK
notes: IgG; V domains only
B8: C866 (antibody, V domains shown)
VH: EVQLVESGGGLVQPGRSLRLSCVASGFEFEDYGMHWVRQVPGKGLEWVSGISWNSASVGYADSVRGRFTISRDNAKNSLYLQMNSLRAEDTALYYCGKQINEWSHFLDYWGQGTLVTVSS
VL: DIQLTQSPSSVSASVGDRVTITCRASQGISNWLAWYQKKPGKAPKLLIYATSSLQSGVPSRFSGSGSETDFTLTIRSLQPEDFATYYCQQANSYPLTFGQGTKLEIK
notes: IgG; V domains only
B9: C894 (antibody, V domains shown)
VH: EVQLVQSGAEVKKPGESLRISCKGSGYSFTGYWISWVRQMPGKGLEWMGRIDPSDSYTNYSPSFEGHVTFSADTALSTAYLQWSSLQASDTAIYFCGRIAPPGRGSYYPTQNYMDVWGKGTTVTVSS
VL: EIVLTQSPGTLSLSPGERATLSCTADQSVPNSYLAWYQHKPGQAPRLLIYGASSRATGIPDRFSGSGSGIDFTLTISRLEPEDFAVYYCQQYGSLLLTFGGGTKVEIK
notes: IgG; V domains only
B10: C889 (antibody, V domains shown)
VH: EVQLVESGGGLVQPGGSLRLSCAVSGFTVSSNYMTWVRQAPGKGLEWVSLIYSGTSAFYADSVKGRFTISRDNSKNTLYLQMSSLRVNDTAIYYCARDLRKDDGYSYGAFDYWGQGTLVTVSS
VL: QSALTQPASVSGSPGQSITISCSGTSSDVGAHNYVSWYQQYPGKAPKLMIFDVTDRPSGVSNRFSGSKSGNTASLTISGLQAEDEADYYCTSYTTNRSWVFGGGTKVTVL
notes: IgG; V domains only
B11: C877 (antibody, V domains shown)
VH: EVQLVESGGGLIPPGGSLRLSCAASGIIVSRNYMSWVRQTPGKGLEWVSVMYAGGTKEYADSVKGRFIISRDDSNNTLYLQMNSLRAEDTAVYYCARDLIVLGVDVWGQGTTVTVSS
VL: DIQLTQSPSFLSASVGDRVTITCRASQGISNYLAWYQQKPGKAPKLLIYAASTLQSGVPSRFSGSGSGTEFTLTISSLQPEDFATYYCQLLNSYPMCSFGQGTKLEIK
notes: IgG; V domains only
B12: C870 (antibody, V domains shown)
VH: EVQLVESGGGLVQPGKSLRLSCAGSGFAFSSYHMNWVRQAPGKGLEWVAYISSGSSTIHYADSVKGRFTISRDNAKNSFYLQMNSLRAEDTALYYCARAIVGTKGYMDVWGKGTTVTVSS
VL: QSALTQPASVSGSPGQSVTISCTGTRSDVGSYDLVSWYQLHADKAPKLIIYEVTSRPSGISTRFSGSKSGNTASLTISGLQAEDEADYYCCSYAGTTWLFGGGTRLTVL
notes: IgG; V domains only
B13: C881 (antibody, V domains shown)
VH: EVQLVESGGGLIQPGGSLRLSCAVSGVAVSTNYMSWVRQAPGQGLEWVSTIYSGDTTYYSDSVKGRFTISRDNSKNTFYLQMNSLRVPDTAVYYCARLGGVFNGFNGSFDYWGQGTLVTVS
VL: QSALTQPASVSGSPGQSITISCIGTSSDFENYNLVSWYQQHPGKAPKVMIYEDTKRPSGVSNRFSGSKSANTASLTISGLQAEDEAEYYCCSYAGASTWVFGGGTRVTVV
notes: IgG; V domains only
B14: C871 (antibody, V domains shown)
VH: EVQLVESGGGLIQTGGSLKLSCAASGFIVTNNYMSWVRQAPGKGLEWVSVIYSGGTTYYADSVKGRFTISRDISKNTLYLQMNSLKAEDTAVYYCAREGDVEGISDSWSGYSRDRYYFDHWGQGTLVTVSS
VL: QSALTQPASVSGSPGQSITISCTGTSSDVGGYNYVSWYQQHPGKAPKLMIYDVSNRPPTISNRFSGSKSGNTASLIISGLQPEDEADYYCSSFTSNNTRVFGTGTKVTVL
notes: IgG; V domains only
B15: C873 (antibody, V domains shown)
VH: QVQLVQSGPEVKKPGASVKVSCKASGYIFTDYSIHWVRQAPGQGLEWMGWINPNSGGGNSAQIFKGRATMARDTSITTVYMDLSGLRSDDTAVYYCARGPLFHKVVYESSSGFHDGLDFWGQGTMVTVSS
VL: QSALTQPASVSGSPGQSVTISCTGTSSDVGGYNFLSWYQQHPGKAPKLLLYEVINRPSGVSDRFSGSKSGNTASLTISGLQAEDEADYYCNSYTSNFTWVFGGGTHLTV
notes: IgG; V domains only
B16: C888 (antibody, V domains shown)
VH: EVQLVESGGGLVQPGGSLRLSCAASGFTVSSNYMSWVRQAPGKGLEWVSVIYSGGSAYYADSVKGRFTISRDNSKNTLYLQMNSLRAEDTAVYYCARDLRDQDGYSYGAFDYWGQGTLVTVSS
VL: QSALTQPASVSGSPGQSITISCTGTSSDVGGYNYVSWYQQHPGKAPKLMIYDVSNRPSGVSNRFSGSKSGNTASLTISGLQAEDEADYYCSSYTSSSSWVFGGGTKLTVL
notes: IgG; V domains only
B17: C890 (antibody, V domains shown)
VH: QVQLVQSGAEVKKPGSSVKASCKASGGTFSTYTISWVRQAPGHGLEWMGRIIPIFGTTKYAQKFQGRVTITADESTTTAYLELSSLRSEDTAVYYCTINTQWDLVPRWGQGTLVTVSS
VL: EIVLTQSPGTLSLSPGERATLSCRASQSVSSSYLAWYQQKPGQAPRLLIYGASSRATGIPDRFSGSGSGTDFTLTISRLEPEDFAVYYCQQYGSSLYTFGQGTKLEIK
notes: IgG; V domains only
B18: C885 (antibody, V domains shown)
VH: QVQLQESGPGLVKPSQTLSLTCAVSGDSIRSGGYYWSWVRQHPGRGLEWIGYIYFSGTTYYNPSLKSRVTISVDTSEKQFSLKLTSVTDADTAVYFCARVKGWLRGYFDYWGQGALVTVSS
VL: NFMLTQSHSVSESPGKTVTISCTGSSGNIVNNYVQWYQQRPGSAPIIVIYEDTQRPSGVPDRFSGSIDTSSNSASLTISGLKTEDEADYYCQSYDSGSHVVFGGGTKLTV
notes: IgG; V domains only
B19: C879 (antibody, V domains shown)
VH: QVQLQESGPGLVKPSQTLSLTCGVSGDSISSGGHFWSWVRQHPGTGLEWIAYSPFSGTTYYNPSLKSRVTLSVDTSKNQFFLSLTSVTDADTAVYFCARVKGWLRGYFDHWGQGVLVTVSS
VL: B18 VL with S7P, G24A, T53A, D95E, S96I, G97D, K107R
notes: IgG; V domains only
B20: C887 (antibody, V domains shown)
VH: EVQLVESGGDLVQPGGSLRLSCAASGFTFTTYSMSWVRQAPGKGLEWISYINSGSANIHYADSVKGRFTVSRDNAKNSLYLQMNSLRDEDTAVYYCARGDCLSSSCYSLDYWGQGALVTVSS
VL: DIQMTQSPSSLSASVGDRVTITCRASQSITSYLSWYLQKPGEAPKLLIYAASILQSGVPSRFGGNGSGTDFTLTISSLQPEDFATFYCQQTYRSPLTFGGGTKVEIK
notes: IgG; V domains only
B21: C886 (antibody, V domains shown)
VH: B20 VH with T28S, F29V, Y32N, S33A, S35A, S53I, H59Q, V70I, L102T
VL: DIQMTQSPSSLSASVGDRVSITCRASQTINTHLSWYLQKPGEAPRLLVYAASTLHSGVPSRFSGSGSGTDFTLTISSLQPEDFATFYCQQTYRFPLTFGGGTKVEIK
notes: IgG; V domains only
B22: C868 (antibody, V domains shown)
VH: QVQLQESGPRLVKPSETLSLTCIVSGGSVSSNNFYWSWIRQPPGKRLEWIGYFYNSGSSKYNPSLKSRVTISGDTSKNQFSLKLSSVTAADTAVYYCARETFFYDRTGHYKSDGFDVWGQGTMVTVSS
VL: DIQMTQSPSTLSASVGDRVTISCRASQNISSWLAWYQQEAGKAPKLLIYKASSLESGVPSRFSGSGSGTEFTLTISSLQPGDFATYYCQQYNIYSYTFGQGTKLEIK
notes: IgG; V domains only
B23: C862 (antibody, V domains shown)
VH: QVQLQESGPGLVKPSQTLSLTCTVSGASISSSEHYWSWIRQPPGKGLEWIGYISYSGGTYQNPSLQSRMTLSMDASKNQFSLKLSSVTAADTAVYFCARLNTMIVMINGVFDVWGQGTMVTVSS
VL: DIQMTQSPSSLSAFVGDRVTITCQASQDINKYVNWYQQKPGKAPKLLIYDASNLQTGVPSRFSGSGSGTHFTFTISSLQPEDFATYYCQEYDNLFSISFGQGTRLEIK
notes: IgG; V domains only

Target: T1, SARS-COV-2 RBD (SARS-COV-2, UniProt P0DTC2 319-539)
T1 construct: also called WT RBD
Test: ELISA, RBD coated

Binder | EC50 [ng/mL]
B1 | 4.22
B2 | 2.71
B3 | 3.14
B4 | 2.19
B5 | 2.9
B6 | 3.5
B7 | 2.2
B8 | 2
B9 | 16.8
B10 | 0.8
B11 | 2.53
B12 | 2.17
B13 | 1.88
B14 | 1.52
B15 | 4.05
B16 | 1.44
B17 | 9.68
B18 | 7.45
B19 | 4.25
B20 | 3.2
B21 | 2.48
B22 | 3.39
B23 | 2.14
